Source: EP4663654A1 (Hangzhou Sciwind Biosciences Co., Ltd., dated 2025)
Starred links: 1 amine or outer side, 2 acyl side, 3 side chain; linkers in the order of their positions; H or OH if unused. Non-standard residues stand in square brackets, D forms with d. *: point of attachment. C20 diacid = O=C(O)CCCCCCCCCCCCCCCCCCC(=O)*; γGlu = O=C(O)[C@H](CCC(=O)[*:2])N[*:1]; Hyp = O=C(O)[C@@H]1C[C@@H](O)CN1; αMeN = C[C@](N)(CC(N)=O)C(=O)O

T1: human amylin receptor (AMY3) on CHO-K1/Ga15/AMY3 amylin receptor/CRE-luc cells (human, UniProt P30988 25-474; O60896 24-148)
T1 sequence (looked up) 1: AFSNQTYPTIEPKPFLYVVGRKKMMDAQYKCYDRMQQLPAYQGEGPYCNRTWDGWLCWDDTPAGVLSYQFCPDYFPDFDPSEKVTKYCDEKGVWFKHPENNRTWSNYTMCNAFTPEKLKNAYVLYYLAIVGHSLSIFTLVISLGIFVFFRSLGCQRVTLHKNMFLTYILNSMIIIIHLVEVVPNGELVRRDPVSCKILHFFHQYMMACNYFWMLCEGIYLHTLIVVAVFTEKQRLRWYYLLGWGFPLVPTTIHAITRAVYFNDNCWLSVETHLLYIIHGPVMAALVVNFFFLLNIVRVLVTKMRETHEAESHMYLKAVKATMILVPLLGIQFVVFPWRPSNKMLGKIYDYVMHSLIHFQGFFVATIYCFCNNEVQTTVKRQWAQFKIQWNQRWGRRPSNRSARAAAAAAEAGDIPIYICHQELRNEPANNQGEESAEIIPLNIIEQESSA
T1 sequence (looked up) 2: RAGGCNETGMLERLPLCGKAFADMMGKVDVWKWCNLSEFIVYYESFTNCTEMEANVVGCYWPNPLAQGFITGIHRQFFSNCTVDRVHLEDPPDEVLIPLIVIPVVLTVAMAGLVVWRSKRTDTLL

B1: polypeptide derivative M5 (peptide)
peptide: {C20 diacid-γGlu}-ASQLSTAATQRLADFLRHSSNNLKPILPPTNVGSNT[Hyp]-NH2
SMILES: CC[C@H](C)[C@H](NC(=O)[C@@H]1CCCN1C(=O)[C@H](CCCCN)NC(=O)[C@H](CC(C)C)NC(=O)[C@H](CC(N)=O)NC(=O)[C@H](CC(N)=O)NC(=O)[C@H](CO)NC(=O)[C@H](CO)NC(=O)[C@H](Cc1c[nH]cn1)NC(=O)[C@H](CCCNC(=N)N)NC(=O)[C@H](CC(C)C)NC(=O)[C@H](Cc1ccccc1)NC(=O)[C@H](CC(=O)O)NC(=O)[C@H](C)NC(=O)[C@H](CC(C)C)NC(=O)[C@H](CCCNC(=N)N)NC(=O)[C@H](CCC(N)=O)NC(=O)[C@@H](NC(=O)[C@H](C)NC(=O)[C@H](C)NC(=O)[C@@H](NC(=O)[C@H](CO)NC(=O)[C@H](CC(C)C)NC(=O)[C@H](CCC(N)=O)NC(=O)[C@H](CO)NC(=O)[C@H](C)NC(=O)CC[C@H](NC(=O)CCCCCCCCCCCCCCCCCCC(=O)O)C(=O)O)[C@@H](C)O)[C@@H](C)O)C(=O)N[C@@H](CC(C)C)C(=O)N1CCC[C@H]1C(=O)N1CCC[C@H]1C(=O)N[C@H](C(=O)N[C@@H](CC(N)=O)C(=O)N[C@H](C(=O)NCC(=O)N[C@@H](CO)C(=O)N[C@@H](CC(N)=O)C(=O)N[C@H](C(=O)N1C[C@H](O)C[C@H]1C(N)=O)[C@@H](C)O)C(C)C)[C@@H](C)O
B2: polypeptide derivative M1 (peptide)
peptide: {C20 diacid-γGlu}-ASELSTAALGRLADFLRHSSNNLKPILPPTNVGSNT[Hyp]-NH2
SMILES: CC[C@H](C)[C@H](NC(=O)[C@@H]1CCCN1C(=O)[C@H](CCCCN)NC(=O)[C@H](CC(C)C)NC(=O)[C@H](CC(N)=O)NC(=O)[C@H](CC(N)=O)NC(=O)[C@H](CO)NC(=O)[C@H](CO)NC(=O)[C@H](Cc1c[nH]cn1)NC(=O)[C@H](CCCNC(=N)N)NC(=O)[C@H](CC(C)C)NC(=O)[C@H](Cc1ccccc1)NC(=O)[C@H](CC(=O)O)NC(=O)[C@H](C)NC(=O)[C@H](CC(C)C)NC(=O)[C@H](CCCNC(=N)N)NC(=O)CNC(=O)[C@H](CC(C)C)NC(=O)[C@H](C)NC(=O)[C@H](C)NC(=O)[C@@H](NC(=O)[C@H](CO)NC(=O)[C@H](CC(C)C)NC(=O)[C@H](CCC(=O)O)NC(=O)[C@H](CO)NC(=O)[C@H](C)NC(=O)CC[C@H](NC(=O)CCCCCCCCCCCCCCCCCCC(=O)O)C(=O)O)[C@@H](C)O)C(=O)N[C@@H](CC(C)C)C(=O)N1CCC[C@H]1C(=O)N1CCC[C@H]1C(=O)N[C@H](C(=O)N[C@@H](CC(N)=O)C(=O)N[C@H](C(=O)NCC(=O)N[C@@H](CO)C(=O)N[C@@H](CC(N)=O)C(=O)N[C@H](C(=O)N1C[C@H](O)C[C@H]1C(N)=O)[C@@H](C)O)C(C)C)[C@@H](C)O
B3: polypeptide derivative M55 (peptide)
peptide: {C20 diacid-γGlu}-ASQLSTAATQRLADFLRHSSN[αMeN]LKPILPPTNVGSNT[Hyp]-NH2
B4: polypeptide derivative M54 (peptide)
peptide: {C20 diacid-γGlu}-ASQLSTAATQRLADFLRHSSRNLKPILPPTNVGSNT[Hyp]-NH2
SMILES: CC[C@H](C)[C@H](NC(=O)[C@@H]1CCCN1C(=O)[C@H](CCCCN)NC(=O)[C@H](CC(C)C)NC(=O)[C@H](CC(N)=O)NC(=O)[C@H](CCCNC(=N)N)NC(=O)[C@H](CO)NC(=O)[C@H](CO)NC(=O)[C@H](Cc1c[nH]cn1)NC(=O)[C@H](CCCNC(=N)N)NC(=O)[C@H](CC(C)C)NC(=O)[C@H](Cc1ccccc1)NC(=O)[C@H](CC(=O)O)NC(=O)[C@H](C)NC(=O)[C@H](CC(C)C)NC(=O)[C@H](CCCNC(=N)N)NC(=O)[C@H](CCC(N)=O)NC(=O)[C@@H](NC(=O)[C@H](C)NC(=O)[C@H](C)NC(=O)[C@@H](NC(=O)[C@H](CO)NC(=O)[C@H](CC(C)C)NC(=O)[C@H](CCC(N)=O)NC(=O)[C@H](CO)NC(=O)[C@H](C)NC(=O)CC[C@H](NC(=O)CCCCCCCCCCCCCCCCCCC(=O)O)C(=O)O)[C@@H](C)O)[C@@H](C)O)C(=O)N[C@@H](CC(C)C)C(=O)N1CCC[C@H]1C(=O)N1CCC[C@H]1C(=O)N[C@H](C(=O)N[C@@H](CC(N)=O)C(=O)N[C@H](C(=O)NCC(=O)N[C@@H](CO)C(=O)N[C@@H](CC(N)=O)C(=O)N[C@H](C(=O)N1C[C@H](O)C[C@H]1C(N)=O)[C@@H](C)O)C(C)C)[C@@H](C)O
B5: polypeptide derivative M53 (peptide)
peptide: {C20 diacid-γGlu}-ASQLSTAATQRLADFLRHSSKNLKPILPPTNVGSNT[Hyp]-NH2
SMILES: CC[C@H](C)[C@H](NC(=O)[C@@H]1CCCN1C(=O)[C@H](CCCCN)NC(=O)[C@H](CC(C)C)NC(=O)[C@H](CC(N)=O)NC(=O)[C@H](CCCCN)NC(=O)[C@H](CO)NC(=O)[C@H](CO)NC(=O)[C@H](Cc1c[nH]cn1)NC(=O)[C@H](CCCNC(=N)N)NC(=O)[C@H](CC(C)C)NC(=O)[C@H](Cc1ccccc1)NC(=O)[C@H](CC(=O)O)NC(=O)[C@H](C)NC(=O)[C@H](CC(C)C)NC(=O)[C@H](CCCNC(=N)N)NC(=O)[C@H](CCC(N)=O)NC(=O)[C@@H](NC(=O)[C@H](C)NC(=O)[C@H](C)NC(=O)[C@@H](NC(=O)[C@H](CO)NC(=O)[C@H](CC(C)C)NC(=O)[C@H](CCC(N)=O)NC(=O)[C@H](CO)NC(=O)[C@H](C)NC(=O)CC[C@H](NC(=O)CCCCCCCCCCCCCCCCCCC(=O)O)C(=O)O)[C@@H](C)O)[C@@H](C)O)C(=O)N[C@@H](CC(C)C)C(=O)N1CCC[C@H]1C(=O)N1CCC[C@H]1C(=O)N[C@H](C(=O)N[C@@H](CC(N)=O)C(=O)N[C@H](C(=O)NCC(=O)N[C@@H](CO)C(=O)N[C@@H](CC(N)=O)C(=O)N[C@H](C(=O)N1C[C@H](O)C[C@H]1C(N)=O)[C@@H](C)O)C(C)C)[C@@H](C)O
B6: polypeptide derivative M7 (peptide)
peptide: {C20 diacid-γGlu}-ASQLSTAVTQRLADFLRHSSNNLKPILPPTNVGSNT[Hyp]-NH2
SMILES: CC[C@H](C)[C@H](NC(=O)[C@@H]1CCCN1C(=O)[C@H](CCCCN)NC(=O)[C@H](CC(C)C)NC(=O)[C@H](CC(N)=O)NC(=O)[C@H](CC(N)=O)NC(=O)[C@H](CO)NC(=O)[C@H](CO)NC(=O)[C@H](Cc1c[nH]cn1)NC(=O)[C@H](CCCNC(=N)N)NC(=O)[C@H](CC(C)C)NC(=O)[C@H](Cc1ccccc1)NC(=O)[C@H](CC(=O)O)NC(=O)[C@H](C)NC(=O)[C@H](CC(C)C)NC(=O)[C@H](CCCNC(=N)N)NC(=O)[C@H](CCC(N)=O)NC(=O)[C@@H](NC(=O)[C@@H](NC(=O)[C@H](C)NC(=O)[C@@H](NC(=O)[C@H](CO)NC(=O)[C@H](CC(C)C)NC(=O)[C@H](CCC(N)=O)NC(=O)[C@H](CO)NC(=O)[C@H](C)NC(=O)CC[C@H](NC(=O)CCCCCCCCCCCCCCCCCCC(=O)O)C(=O)O)[C@@H](C)O)C(C)C)[C@@H](C)O)C(=O)N[C@@H](CC(C)C)C(=O)N1CCC[C@H]1C(=O)N1CCC[C@H]1C(=O)N[C@H](C(=O)N[C@@H](CC(N)=O)C(=O)N[C@H](C(=O)NCC(=O)N[C@@H](CO)C(=O)N[C@@H](CC(N)=O)C(=O)N[C@H](C(=O)N1C[C@H](O)C[C@H]1C(N)=O)[C@@H](C)O)C(C)C)[C@@H](C)O
B7: polypeptide derivative M6 (peptide)
peptide: {C20 diacid-γGlu}-ASQLSTAATQRLADFLRHFTDRDRDILPPTNVGSNTP-NH2
SMILES: CC[C@H](C)[C@H](NC(=O)[C@H](CC(=O)O)NC(=O)[C@H](CCCNC(=N)N)NC(=O)[C@H](CC(=O)O)NC(=O)[C@H](CCCNC(=N)N)NC(=O)[C@H](CC(=O)O)NC(=O)[C@@H](NC(=O)[C@H](Cc1ccccc1)NC(=O)[C@H](Cc1c[nH]cn1)NC(=O)[C@H](CCCNC(=N)N)NC(=O)[C@H](CC(C)C)NC(=O)[C@H](Cc1ccccc1)NC(=O)[C@H](CC(=O)O)NC(=O)[C@H](C)NC(=O)[C@H](CC(C)C)NC(=O)[C@H](CCCNC(=N)N)NC(=O)[C@H](CCC(N)=O)NC(=O)[C@@H](NC(=O)[C@H](C)NC(=O)[C@H](C)NC(=O)[C@@H](NC(=O)[C@H](CO)NC(=O)[C@H](CC(C)C)NC(=O)[C@H](CCC(N)=O)NC(=O)[C@H](CO)NC(=O)[C@H](C)NC(=O)CC[C@H](NC(=O)CCCCCCCCCCCCCCCCCCC(=O)O)C(=O)O)[C@@H](C)O)[C@@H](C)O)[C@@H](C)O)C(=O)N[C@@H](CC(C)C)C(=O)N1CCC[C@H]1C(=O)N1CCC[C@H]1C(=O)N[C@H](C(=O)N[C@@H](CC(N)=O)C(=O)N[C@H](C(=O)NCC(=O)N[C@@H](CO)C(=O)N[C@@H](CC(N)=O)C(=O)N[C@H](C(=O)N1CCC[C@H]1C(N)=O)[C@@H](C)O)C(C)C)[C@@H](C)O

Molecular target: T1, human amylin receptor (AMY3) on …
Test: cell-based or functional assay

Row | EC50/nM, CRE-luciferase reporter in amylin receptor/CRE-luc CHO cells [nM] | Relative activity (the EC50 ratio of Cagrilintide to the compound) [%] | Binder
1 | 0.031 | 84 | B1
2 | 0.053 | 49 | B2
3 | 0.03 | 233 | B3
4 | 0.06 | 267 | B4
5 | 0.08 | 200 | B5
6 | 0.066 | 39 | B6
7 | 0.042 | 62 | B7
